Laboratory results reported in article PMC7718890, “High-throughput screening to discover inhibitors of the CarD·RNA polymerase protein–protein interaction in Mycobacterium tuberculosis” (Scientific Reports, 2020).

Biological target: Mycobacterium tuberculosis RNA polymerase, wild type (Mycobacterium tuberculosis) (UniProt P9WGY9)
Assay: FP

**Q.** With CarD T24C labelled with BODIPY-FL as the substance, how does the Kd read?
**A.** 56 nM
